Assay results published in US20200385441A1 (TECHNION RESEARCH AND DEVELOPMENT FOUNDATION, published 2020).

Target: T1, human Melanoma-associated Chondroitin Sulfate Proteoglycan (MCSP) (human, UniProt Q6UVK1 30-2322)
T1 construct: whole, on cells; also called CSPG4; NG2
Test: flow cytometry on B16F10-MCSP (C25) cells, detected with Strep-PE or fold-specific anti-H-2K antibody

T1 sequence (Q6UVK1 30-2322): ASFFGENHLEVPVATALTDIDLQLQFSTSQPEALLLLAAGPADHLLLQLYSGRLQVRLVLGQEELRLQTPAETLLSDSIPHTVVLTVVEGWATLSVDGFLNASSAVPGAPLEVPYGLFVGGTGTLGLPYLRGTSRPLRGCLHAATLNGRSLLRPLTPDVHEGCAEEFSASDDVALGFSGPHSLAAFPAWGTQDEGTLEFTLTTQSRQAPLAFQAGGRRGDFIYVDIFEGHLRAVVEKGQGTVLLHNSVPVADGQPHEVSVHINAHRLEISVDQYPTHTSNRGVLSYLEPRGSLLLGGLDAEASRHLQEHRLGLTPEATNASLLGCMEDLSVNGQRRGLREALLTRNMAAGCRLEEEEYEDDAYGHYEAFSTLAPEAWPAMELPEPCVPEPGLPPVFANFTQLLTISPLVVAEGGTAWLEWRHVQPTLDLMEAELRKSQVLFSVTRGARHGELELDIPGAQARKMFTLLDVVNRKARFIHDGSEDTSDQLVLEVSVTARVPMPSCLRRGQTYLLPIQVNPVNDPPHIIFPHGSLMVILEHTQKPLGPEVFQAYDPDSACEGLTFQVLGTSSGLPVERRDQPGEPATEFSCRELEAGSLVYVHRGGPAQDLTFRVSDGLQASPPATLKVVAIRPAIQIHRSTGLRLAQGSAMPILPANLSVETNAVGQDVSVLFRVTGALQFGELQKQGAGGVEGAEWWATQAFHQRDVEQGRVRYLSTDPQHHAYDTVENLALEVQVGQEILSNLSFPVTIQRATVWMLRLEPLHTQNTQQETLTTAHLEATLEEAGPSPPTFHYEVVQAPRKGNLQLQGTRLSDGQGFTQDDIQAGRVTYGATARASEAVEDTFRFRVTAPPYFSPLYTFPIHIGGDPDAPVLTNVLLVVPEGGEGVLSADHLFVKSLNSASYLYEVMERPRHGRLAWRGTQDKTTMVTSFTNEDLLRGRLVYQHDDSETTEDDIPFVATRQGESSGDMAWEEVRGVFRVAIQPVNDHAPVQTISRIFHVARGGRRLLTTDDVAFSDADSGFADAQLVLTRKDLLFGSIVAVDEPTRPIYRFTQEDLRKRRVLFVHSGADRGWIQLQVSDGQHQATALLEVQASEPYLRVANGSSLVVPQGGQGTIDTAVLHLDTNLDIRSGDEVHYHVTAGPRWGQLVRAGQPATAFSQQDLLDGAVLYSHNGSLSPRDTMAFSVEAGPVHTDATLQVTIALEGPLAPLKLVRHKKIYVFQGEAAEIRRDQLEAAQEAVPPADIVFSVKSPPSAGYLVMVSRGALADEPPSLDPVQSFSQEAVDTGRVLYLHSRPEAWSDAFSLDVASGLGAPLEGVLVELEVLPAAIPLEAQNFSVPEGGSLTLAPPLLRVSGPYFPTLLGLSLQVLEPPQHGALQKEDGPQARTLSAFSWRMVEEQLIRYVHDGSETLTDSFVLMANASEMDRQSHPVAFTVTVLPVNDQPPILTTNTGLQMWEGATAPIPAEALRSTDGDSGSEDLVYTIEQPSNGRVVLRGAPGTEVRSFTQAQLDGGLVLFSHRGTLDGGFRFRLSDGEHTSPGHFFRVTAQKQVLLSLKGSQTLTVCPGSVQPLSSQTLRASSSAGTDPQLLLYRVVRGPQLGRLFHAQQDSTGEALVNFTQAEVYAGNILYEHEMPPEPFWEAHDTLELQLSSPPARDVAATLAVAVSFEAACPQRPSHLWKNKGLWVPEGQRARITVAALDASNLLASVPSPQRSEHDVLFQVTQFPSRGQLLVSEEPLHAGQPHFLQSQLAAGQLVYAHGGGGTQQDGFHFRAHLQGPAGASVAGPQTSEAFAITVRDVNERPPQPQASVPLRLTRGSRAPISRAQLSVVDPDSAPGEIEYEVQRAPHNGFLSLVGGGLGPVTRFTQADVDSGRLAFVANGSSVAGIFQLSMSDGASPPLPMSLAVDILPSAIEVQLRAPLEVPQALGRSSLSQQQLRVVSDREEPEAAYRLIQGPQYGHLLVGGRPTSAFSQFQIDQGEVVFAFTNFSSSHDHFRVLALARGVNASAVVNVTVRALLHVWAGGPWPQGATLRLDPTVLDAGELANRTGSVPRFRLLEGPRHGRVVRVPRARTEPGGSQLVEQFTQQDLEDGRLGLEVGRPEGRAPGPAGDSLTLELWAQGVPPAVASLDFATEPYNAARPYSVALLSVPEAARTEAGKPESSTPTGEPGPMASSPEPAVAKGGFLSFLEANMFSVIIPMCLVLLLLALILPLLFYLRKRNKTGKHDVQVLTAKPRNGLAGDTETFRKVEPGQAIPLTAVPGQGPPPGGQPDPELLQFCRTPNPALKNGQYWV

B1: BA5 biotinylated peptide-H-2Kb-anti-MCSP scFv fusion protein, 20 amino acid β2M-MHC linker (peptide-MHC)
chain: RTYTYEKLGGGGSGGGGSGGGGSIQKTPQIQVYSRHPPENGKPNILNCYVTQFHPPHIEIQMLKNGKKIPKVEMSDMSFSKDWSFYILAHTEFTPTETDTYACRVKHVSMAEPKTVYWDRDMGGGGSGGGGSGGGGSGGGGSGPHSLRYFVTAVSRPGLGEPRYMEVGYVDDTEFVRFDSDAENPRYEPRARWMEQEGPEYWERETQKAKGNEQSFRVDLRTLLGYYNQSKGGSHTIQVISGCEVGSDGRLLRGYQQYAYDGCDYIALNEDLKTWTAADMAALITKHKWEQAGEAERLRAYLEGTCVEWLRRYLKNGNATLLRTDSPKAHVTHHSRPEDKVTLRCWALGFYPADITLTWQLNGEELIQDMELVETRPAGDGTFQKWASVVVPLGKEQYYTCHVYHQGLPEPLTLRWEPPPSTASGGQVKLQQSGGGLVQPGGSMKLSCVVSGFTFSNYWMNWVRQSPEKGLEWIAEIRLKSNNFGRYYAESVKGRFTISRDDSKSSAYLQMINLRAEDTGIYYCTSYGNYVGHYFDHWGQGTTVTVSSGGGGSGGGGSGGGGSDIELTQSPKFMSTSVGDRVSVTCKASQNVDTNVAWYQQKPGQSPEPLLFSASYRYTGVPDRFTGSGSGTDFTLTISNVQSEDLAEYFCQQYNSYPLTFGGGTKLEIKRAHHHHHHGLNDIFEAQKIEWH
notes: also called BA-biotin fusion molecule; biotinylated ScFv-MHC molecule
  binding result: binds
